Legend:
[1] = target: His-tagged FcγRIIIa/CD16a extracellular domain (amino acids 17-208), V158 allotype (UniProt P08637); assay: SPR
[2] = target: human neonatal Fc receptor (hFcRn) (human) (UniProt P55899); assay: SPR

UniProt P08637, sequence (P08637 17-208 F176V): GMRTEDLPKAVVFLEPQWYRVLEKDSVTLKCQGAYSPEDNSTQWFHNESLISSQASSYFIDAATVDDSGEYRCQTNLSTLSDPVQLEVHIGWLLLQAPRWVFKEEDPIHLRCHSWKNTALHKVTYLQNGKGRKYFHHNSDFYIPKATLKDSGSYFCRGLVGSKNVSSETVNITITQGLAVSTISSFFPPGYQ

kon [1]: 306000 M⁻¹ s⁻¹
Kd ([1]; from kinetic rate constants): 127 nM
Kd ([1]; steady-state analysis): 259 nM
kon [2]: 389000 M⁻¹ s⁻¹
Kd ([2]; KD from steady-state analysis): 344 nM
Kd ([2]; kinetic 1:1 binding model fit): 196 nM
B1: COVA2-15 IgG1, wild type, produced in N. benthamiana ΔXT/FT (antibody, V domains shown)
VH: QVQLLESGGGLVQPGGSLRLSCAASGFTFSSYAMSWVRQAPGKGLEWASAISGSGGSTYYADSVEGRFTISRDNSKNTLYLQMNSLRAEDTAVYYCAKDTGYCGDDCYIKLIRGGPDYWGQGTLVTVSS
VL: DIVMTQSPLSLPVTLGQPASISCRSSQSLVYSDGNTFLNWFQQRPGQSPRRLIYQVSNRDSGVPDRFSGSGSGTDFTLKISRVEAEDVGVYYCMQGTHWPRTFGQGTKLEIK

From publication PMC11794253
